Data from publication PMC2741138 (Journal of molecular biology, 2008).
Several values for one entry are separate records, joined by “and”; a condition that tells them apart may be missing. Equal values may be shown once. Read-outs that look alike come from different tables or passages of the source. Each block holds one molecule with its values, some of them ahead of it.

Columns and labels:
Test in all cases: kinase competition assay
SRPK1 [1] = biological target: SRPK1 (UniProt Q96SB4)
SRPK1 [2] = biological target: T1, SRPK1 (UniProt Q96SB4 1-655)
T1 sequence (Q96SB4 whole entry): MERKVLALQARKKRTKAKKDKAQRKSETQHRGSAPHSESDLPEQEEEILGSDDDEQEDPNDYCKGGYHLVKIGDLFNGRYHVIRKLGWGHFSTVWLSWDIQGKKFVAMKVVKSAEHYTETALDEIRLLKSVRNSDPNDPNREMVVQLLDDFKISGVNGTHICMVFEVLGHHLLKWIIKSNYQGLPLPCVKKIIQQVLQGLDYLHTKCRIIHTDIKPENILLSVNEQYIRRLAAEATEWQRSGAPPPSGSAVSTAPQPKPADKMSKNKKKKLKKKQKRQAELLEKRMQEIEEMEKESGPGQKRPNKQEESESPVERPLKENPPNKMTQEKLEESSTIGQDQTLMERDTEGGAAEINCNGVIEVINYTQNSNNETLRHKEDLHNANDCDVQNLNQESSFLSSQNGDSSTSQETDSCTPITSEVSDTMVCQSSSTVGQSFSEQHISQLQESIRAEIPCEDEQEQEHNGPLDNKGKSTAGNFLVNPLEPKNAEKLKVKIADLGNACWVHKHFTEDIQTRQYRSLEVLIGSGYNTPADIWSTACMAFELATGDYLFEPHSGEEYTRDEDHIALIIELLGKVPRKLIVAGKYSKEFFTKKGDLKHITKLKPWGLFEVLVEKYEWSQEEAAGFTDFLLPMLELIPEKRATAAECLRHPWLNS

SRPK1 [3] = biological target: T1, SRPK1; remark: listed apart in the source

SRPK1 (UniProt Q96SB4), sequence (Q96SB4 whole entry): as above

B1: ASF(RS12)-His (domain or fragment)
chain: PRSPSYGRSRSRSRSRSRSRSRSNSRSRSYSPRRSRGSPRYSPRHSRSRSRT
Ki (SRPK1 [2]): 190 ± 13 nM

B2: ASF(RRM2) (domain or fragment)
chain: NRVVVSGLPPSGSWQDLKDHMREAGDVCYADVYRDGTGVVEFVRKEDMTYAVRKLDNTKFRSHEGETAYIRVKVDGPRSPSYG
Ki (SRPK1 [3]): 6300 ± 1900 nM

B4: ASF(RRM1) (domain or fragment)
chain: MSGGGVIRGPAGNNDCRIYVGNLPPDIRTKDIEDVFYKYGAIRDIDLKNRRGGPPFAFVEFEDPRDAEDAVYGRDGYDYDGYRLRVEFPRS
Ki (SRPK1 [3]): 1600 ± 400 nM

B5: (RS)8 (peptide)
chain: RSRSRSRSRSRSRSRS
modifications: Expanded from the printed formula (RS)8; any flanking residues or end caps are not stated
Ki (SRPK1 [3]): 1800 nM and 1600 nM

B6: (RS)16 (peptide)
chain: RSRSRSRSRSRSRSRSRSRSRSRSRSRSRSRS
modifications: Expanded from the printed formula (RS)16; any flanking residues or end caps are not stated
Ki (SRPK1 [3]): 160 ± 41 nM

B7: ASF(ΔRRM1)-His (domain or fragment)
chain: GGAPRGRYGPPSRRSENRVVVSGLPPSGSWQDLKDHMREAGDVCYADVYRDGTGVVEFVRKEDMTYAVRKLDNTKFRSHEGETAYIRVKVDGPRSPSYGRSRSRSRSRSRSRSRSNSRSRSYSPRRSRGSPRYSPRHSRSRSRT
Ki (SRPK1 [2]): 54 ± 5 nM

The remaining lines, values ahead:

Ki (SRPK1 [1]): 120 nM
Molecule: Block 3/4 (from UniProt Q07955 1-248) (natural protein)

Ki (SRPK1 [1]): 40 nM
Molecule: Block 1/2 (from UniProt Q07955 1-248) (natural protein)

Ki (SRPK1 [1]): 45 nM
Molecule: Block 2/3 (from UniProt Q07955 1-248) (natural protein)

Ki (SRPK1 [1]): 170 nM
Molecule: ASF(ΔRS2) (domain or fragment)

Ki (SRPK1 [1]): 180 nM
Molecule: ASF(ΔRS) (domain or fragment)

Ki (SRPK1 [2]): 70 ± 15 nM
B3: ASF(ΔRRM12)-His (domain or fragment)
chain: GPRSPSYGRSRSRSRSRSRSRSRSNSRSRSYSPRRSRGSPRYSPRHSRSRSRT
